B1: proteinase K: proteinase K (Sigma) used to pretreat DNA dMTase (protein, UniProt P06873 106-384, looked up)
Proteinase K: AAQTNAPWGLARISSTSPGTSTYYYDESAGQGSCVYVIDTGIEASHPEFEGRAQMVKTYYYSSRDGNGHGTHCAGTVGSRTYGVAKKTQLFGVKVLDDNGSGQYSTIIAGMDFVASDKNNRNCPKGVVASLSLGGGYSSSVNSAAARLQSSGVMVAVAAGNNNADARNYSPASEPSVCTVGASDRYDRRSSFSNYGSVLDIFGPGTSILSTWIGGSTRSISGTSMATPHVAGLAAYLMTLGKTTAASACRYIADTANKGDLSNIPFGTVNLLAYNNYQA
B2: RNase: RNase A (Sigma) used to treat column fractions (protein, UniProt P61823 27-150, looked up)
Ribonuclease pancreatic: KETAAAKFERQHMDSSTSAASSSNYCNQMMKSRNLTKDRCKPVNTFVHESLADVQAVCSQKNVACKNGQTNCYQSYSTMSITDCRETGSSKYPNCAYKTTQANKHIIVACEGNPYVPVHFDASV

Test system: DNA dMTase
Assay: Demethylation of [mdC32pdG]n substrate (conversion of mdCMP to dCMP) with additives or pretreatment
Format: biochemical, human
Conditions: transformation of mdC to C or release of volatile methyl residues; proteinase K 200 μg/ml 1 h 56° C.; RNase A 100 μg/ml
Procedure: (A) To assay the conversion of methyl-dCMP (mdCMP) to dCMP we used a previously described method (Szyf et al., 1995). Briefly, α^32P labeled, fully methylated poly[mdC^32PdG]n substrate was prepared as follows. One hundred ng of a double-stranded fully methylated (mdCpdG) oligomer (Pharmacia) were denatured by boiling, which was followed by partial annealing at room temperature. The complementary strand was extended with Klenow fragment (Boehringer Mannheim) using methyl-5-dCTP (mdCTP, 0.1 mM) (Boehringer Mannheim) and […] (100 μCi, 3000 Ci/mmol), and the unincorporated nucleotides were removed by chromatography through a NAP-5 column (Pharmacia). The NAP-5 chromatography was repeated to exclude minor contamination with unincorporated nucleotides. […] The digestion products were loaded onto a thin layer chromatography plate (TLC) (Kodak, 13255 Cellulose), separated in a medium containing, 132 ml Isobutyric acid:40 ml water:4 ml ammonia solution, autoradiographed and the intensity of the different spots was determined using a phosphorimager (Fuji, BAS 2000). ^32P labeled substrates and tritium labeled substrates were phosphoimaged using BAS 2000 plate and BAS-TR2040 phosphorimager plate respectively. (B) The second method determined removal of methylated residues from methylated DNA by measuring disappearance of ^3H—CH3 or ^14C—CH3 from the reaction mixture. […]

Molecule	DNA dMTase activity after enzyme treatment
B1	abolished
B2	not inhibited but rather enhanced

— US7098012B1, “DNA demethylase, therapeutic and diagnostic uses thereof” (McGill University, priority 1997, dated 2006)
